Tested on: T1, recombinant MBP-peptide fusion protein (MBP-29)
T1 sequence: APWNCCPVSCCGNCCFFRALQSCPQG

| Substance | enzymatic activity of MMP-9 after MMP-3 dependent activation ([3H]-labeled gelatin substrate) | enzymatic activity of MMP-9 ([3H]-labeled gelatin substrate, TCA soluble radioactivity) |
| --- | --- | --- |
| ProMMP-9 activated with MBP-MMP3 | MMP-3 dependent activation of MMP was inhibited in a dose-dependent manner |  |
| proMMP-9 (CALBIOCHEM) |  | inhibited MMP-9 activity in a dose-dependent manner |
